T1: human FcγRIIa type R (human, UniProt P12318 36-217)
T1 construct: also called FcγRIIaR; FcγRIIa(R)
T1 chain: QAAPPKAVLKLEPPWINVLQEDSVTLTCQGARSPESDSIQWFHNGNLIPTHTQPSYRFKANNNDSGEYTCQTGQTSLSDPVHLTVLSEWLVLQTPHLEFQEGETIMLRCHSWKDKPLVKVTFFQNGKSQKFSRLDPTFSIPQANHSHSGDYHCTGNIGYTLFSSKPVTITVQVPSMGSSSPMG

T2: human FcγRIIa type H (human, UniProt P12318 36-217)
T2 construct: also called FcγRIIaH; FcγRIIa(H)
T2 sequence: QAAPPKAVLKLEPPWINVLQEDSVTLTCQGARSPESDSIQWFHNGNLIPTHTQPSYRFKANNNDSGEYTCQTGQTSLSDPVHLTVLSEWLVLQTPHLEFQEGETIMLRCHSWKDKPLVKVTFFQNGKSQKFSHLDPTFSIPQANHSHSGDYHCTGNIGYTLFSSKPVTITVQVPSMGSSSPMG

T3: human FcγRIIb (human, UniProt P31994 43-217, limits assumed)
T3 construct: also called FcγIIB
T3 sequence: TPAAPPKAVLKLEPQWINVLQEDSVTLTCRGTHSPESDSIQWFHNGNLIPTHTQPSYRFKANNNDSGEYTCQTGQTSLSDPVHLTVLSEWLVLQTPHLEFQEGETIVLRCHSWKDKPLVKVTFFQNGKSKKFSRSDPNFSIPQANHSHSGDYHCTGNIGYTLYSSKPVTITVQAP

B1: IL6R-BF648/IL6R-L (antibody, human IgG1)
heavy: not shown
light: DIQMTQSPSSLSASVGDRVTITCRASQDISSYLNWYQQKPGKAPKLLIYYTSRLHSGVPSRFSGSGSGTDFTFTISSLQPEDIATYYCQQGNTLPYTFGQGTKVEIK
notes: IL6R-B3 with P238D; also called P238D
B2: IL6R-B3/IL6R-L (antibody, human IgG1)
heavy: not shown
light: DIQMTQSPSSLSASVGDRVTITCRASQDISSYLNWYQQKPGKAPKLLIYYTSRLHSGVPSRFSGSGSGTDFTFTISSLQPEDIATYYCQQGNTLPYTFGQGTKVEIK
notes: IL6R-G1d with K439E (EU numbering)
B3: IL6R-2B128/IL6R-L (antibody, human IgG1)
heavy: QVQLQESGPGLVKPSETLSLTCAVSGHSISHDHAWSWVRQPPGEGLEWIGFISYSGITNYNPSLQGRVTISRDNSKNTLYLQMNSLRAEDTAVYYCARSLARTTAMDYWGEGTLVTVSSASTKGPSVFPLAPSSKSTSGGTAALGCLVKDYFPEPVTVSWNSGALTSGVHTFPAVLQSSGLYSLSSVVTVPSSSLGTQTYICNVNHKPSNTKVDKKVEPKSCDKTHTCPPCPAPELLGGDSVFLFPPKPKDTLMISRTPEVTCVVVDVSHEDPEVKFNWYVDGVEVHNAKTKPREEQDNSTYRVVSVLTVLHQDWLNGKEYKCKVSNKALPAPIEKTISKAKGQPREPQVYTLPPSRDELTKNQVSLTCLVKGFYPSDIAVEWESNGQPENNYKTTPPVLDSDGSFFLYSKLTVDKSRWQQGNVFSCSVMHEALHNHYTQESLSLSP
light: DIQMTQSPSSLSASVGDRVTITCRASQDISSYLNWYQQKPGKAPKLLIYYTSRLHSGVPSRFSGSGSGTDFTFTISSLQPEDIATYYCQQGNTLPYTFGQGTKVEIK
notes: Alteration introduced into IL6R-B3; also called P238D/Y296D
B4: IL6R-2B169/IL6R-L (antibody, human IgG1)
heavy: QVQLQESGPGLVKPSETLSLTCAVSGHSISHDHAWSWVRQPPGEGLEWIGFISYSGITNYNPSLQGRVTISRDNSKNTLYLQMNSLRAEDTAVYYCARSLARTTAMDYWGEGTLVTVSSASTKGPSVFPLAPSSKSTSGGTAALGCLVKDYFPEPVTVSWNSGALTSGVHTFPAVLQSSGLYSLSSVVTVPSSSLGTQTYICNVNHKPSNTKVDKKVEPKSCDKTHTCPPCPAPELLGGDSVFLFPPKPKDTLMISRTPEVTCVVVDVSHEDPEVKFNWYVDGVEVHNAKTKPREEQYNSTYRVVSVLTVLHQDWLNGKEYKCKISNKALPAPIEKTISKAKGQPREPQVYTLPPSRDELTKNQVSLTCLVKGFYPSDIAVEWESNGQPENNYKTTPPVLDSDGSFFLYSKLTVDKSRWQQGNVFSCSVMHEALHNHYTQESLSLSP
light: DIQMTQSPSSLSASVGDRVTITCRASQDISSYLNWYQQKPGKAPKLLIYYTSRLHSGVPSRFSGSGSGTDFTFTISSLQPEDIATYYCQQGNTLPYTFGQGTKVEIK
notes: Alteration introduced into IL6R-B3; also called P238D/V323I; 1L6R-2B169/IL6R-L
B5: IL6R-2B171/IL6R-L (antibody, human IgG1)
heavy: QVQLQESGPGLVKPSETLSLTCAVSGHSISHDHAWSWVRQPPGEGLEWIGFISYSGITNYNPSLQGRVTISRDNSKNTLYLQMNSLRAEDTAVYYCARSLARTTAMDYWGEGTLVTVSSASTKGPSVFPLAPSSKSTSGGTAALGCLVKDYFPEPVTVSWNSGALTSGVHTFPAVLQSSGLYSLSSVVTVPSSSLGTQTYICNVNHKPSNTKVDKKVEPKSCDKTHTCPPCPAPELLGGDSVFLFPPKPKDTLMISRTPEVTCVVVDVSHEDPEVKFNWYVDGVEVHNAKTKPREEQYNSTYRVVSVLTVLHQDWLNGKEYKCKLSNKALPAPIEKTISKAKGQPREPQVYTLPPSRDELTKNQVSLTCLVKGFYPSDIAVEWESNGQPENNYKTTPPVLDSDGSFFLYSKLTVDKSRWQQGNVFSCSVMHEALHNHYTQESLSLSP
light: DIQMTQSPSSLSASVGDRVTITCRASQDISSYLNWYQQKPGKAPKLLIYYTSRLHSGVPSRFSGSGSGTDFTFTISSLQPEDIATYYCQQGNTLPYTFGQGTKVEIK
notes: Alteration introduced into IL6R-B3; also called P238D/V323L
B6: IL6R-2B172/IL6R-L (antibody, human IgG1)
heavy: QVQLQESGPGLVKPSETLSLTCAVSGHSISHDHAWSWVRQPPGEGLEWIGFISYSGITNYNPSLQGRVTISRDNSKNTLYLQMNSLRAEDTAVYYCARSLARTTAMDYWGEGTLVTVSSASTKGPSVFPLAPSSKSTSGGTAALGCLVKDYFPEPVTVSWNSGALTSGVHTFPAVLQSSGLYSLSSVVTVPSSSLGTQTYICNVNHKPSNTKVDKKVEPKSCDKTHTCPPCPAPELLGGDSVFLFPPKPKDTLMISRTPEVTCVVVDVSHEDPEVKFNWYVDGVEVHNAKTKPREEQYNSTYRVVSVLTVLHQDWLNGKEYKCKMSNKALPAPIEKTISKAKGQPREPQVYTLPPSRDELTKNQVSLTCLVKGFYPSDIAVEWESNGQPENNYKTTPPVLDSDGSFFLYSKLTVDKSRWQQGNVFSCSVMHEALHNHYTQESLSLSP
light: DIQMTQSPSSLSASVGDRVTITCRASQDISSYLNWYQQKPGKAPKLLIYYTSRLHSGVPSRFSGSGSGTDFTFTISSLQPEDIATYYCQQGNTLPYTFGQGTKVEIK
notes: Alteration introduced into IL6R-B3; also called P238D/V323M
B7: IL6R-BP100/IL6R-L (antibody, human IgG1)
heavy: QVQLQESGPGLVKPSETLSLTCAVSGHSISHDHAWSWVRQPPGEGLEWIGFISYSGITNYNPSLQGRVTISRDNSKNTLYLQMNSLRAEDTAVYYCARSLARTTAMDYWGEGTLVTVSSASTKGPSVFPLAPSSKSTSGGTAALGCLVKDYFPEPVTVSWNSGALTSGVHTFPAVLQSSGLYSLSSVVTVPSSSLGTQTYICNVNHKPSNTKVDKKVEPKSCDKTHTCPPCPAPELLGGDSVFLFPPKPKDTLMISRTPEVTCVVVDVAHEDPEVKFNWYVDGVEVHNAKTKPREEQYNSTYRVVSVLTVLHQDWLNGKEYKCKVSNKALPAPIEKTISKAKGQPREPQVYTLPPSRDELTKNQVSLTCLVKGFYPSDIAVEWESNGQPENNYKTTPPVLDSDGSFFLYSKLTVDKSRWQQGNVFSCSVMHEALHNHYTQESLSLSP
light: DIQMTQSPSSLSASVGDRVTITCRASQDISSYLNWYQQKPGKAPKLLIYYTSRLHSGVPSRFSGSGSGTDFTFTISSLQPEDIATYYCQQGNTLPYTFGQGTKVEIK
notes: Alteration introduced into IL6R-B3; also called P238D/S267A
B8: IL6R-BP107/IL6R-L (antibody, human IgG1)
heavy: QVQLQESGPGLVKPSETLSLTCAVSGHSISHDHAWSWVRQPPGEGLEWIGFISYSGITNYNPSLQGRVTISRDNSKNTLYLQMNSLRAEDTAVYYCARSLARTTAMDYWGEGTLVTVSSASTKGPSVFPLAPSSKSTSGGTAALGCLVKDYFPEPVTVSWNSGALTSGVHTFPAVLQSSGLYSLSSVVTVPSSSLGTQTYICNVNHKPSNTKVDKKVEPKSCDKTHTCPPCPAPELLGGDSVFLFPPKPKDTLMISRTPEVTCVVVDVSEEDPEVKFNWYVDGVEVHNAKTKPREEQYNSTYRVVSVLTVLHQDWLNGKEYKCKVSNKALPAPIEKTISKAKGQPREPQVYTLPPSRDELTKNQVSLTCLVKGFYPSDIAVEWESNGQPENNYKTTPPVLDSDGSFFLYSKLTVDKSRWQQGNVFSCSVMHEALHNHYTQESLSLSP
light: DIQMTQSPSSLSASVGDRVTITCRASQDISSYLNWYQQKPGKAPKLLIYYTSRLHSGVPSRFSGSGSGTDFTFTISSLQPEDIATYYCQQGNTLPYTFGQGTKVEIK
notes: Alteration introduced into IL6R-B3; also called P238D/H268E

What was measured:
Experiment in all cases: SPR (Biacore), binding amount relative to IL6R-BF648/IL6R-L = 100
[1] = target: T4, human FcγRIa (human, UniProt P12314 16-292, limits assumed)
T4 construct: also called CD64

[2] = target: T1, human FcγRIIa type R
[3] = target: T2, human FcγRIIa type H
[4] = target: T3, human FcγRIIb
[5] = target: T5, human FcγRIIIa type V (human, UniProt P08637 17-208, limits assumed)
T5 construct: also called FcγRIIIaV; FcγRIIIa(V)
T5 sequence (P08637 other isoform, or with tags, fused parts or gaps limits assumed): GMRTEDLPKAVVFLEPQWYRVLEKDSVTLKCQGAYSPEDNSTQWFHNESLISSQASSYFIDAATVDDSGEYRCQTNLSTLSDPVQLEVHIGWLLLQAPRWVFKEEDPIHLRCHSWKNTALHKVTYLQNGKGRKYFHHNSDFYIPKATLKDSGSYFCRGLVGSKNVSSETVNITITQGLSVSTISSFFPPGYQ

T4 sequence (P12314 16-292 limits assumed): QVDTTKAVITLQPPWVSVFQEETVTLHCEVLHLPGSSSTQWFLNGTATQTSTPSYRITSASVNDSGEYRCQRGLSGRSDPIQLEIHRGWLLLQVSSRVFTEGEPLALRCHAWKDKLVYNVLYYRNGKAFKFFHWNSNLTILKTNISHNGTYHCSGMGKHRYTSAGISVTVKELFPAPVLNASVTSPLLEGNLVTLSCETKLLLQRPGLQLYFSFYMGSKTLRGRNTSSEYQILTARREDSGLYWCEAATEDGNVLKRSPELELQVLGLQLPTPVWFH

Row | Binder | relative binding [1] | relative binding [2] | relative binding [3] | relative binding [4] | relative binding [5]
1 | B1 | 100 | 100 | 100 | 100 | 100
2 | B2 | 145 | 625 | 1600 | 58 | 3260
3 | B3 | 95 | 87 | 37 | 103 | 96
4 | B4 | 73 |  | 83 | 104 | 94
5 | B5 | 116 | 117 | 115 | 113 | 122
6 | B6 | 140 | 244 | 179 | 132 | 144
7 | B7 | 121 | 197 | 128 | 110 | 138
8 | B8 | 123 | 147 |  | 118 | 129

From patent US20200199241A1 (Chugai, published 2020)
